Drawing on paper PMC4188797, this text covers stoichiometry N for one molecule.

In the assay the target is metabotropic glutamate receptor 1 splice variant mGluR1a (endogenous, rat brain) (rat (endogenous in rat brain)), P23385. Kind of assay: SDS-PAGE and immunoblot of dimer bands in subcellular fractions. Particulars: remark: other sources report otherwise. (In general: In western blotting, separated proteins are transferred to a membrane and probed.)

B1: metabotropic glutamate receptor 1 splice variant mGluR1a (endogenous, rat brain), P23385 19-1199 (receptor)
chain: LPRMPDRKVLLAGASSQRSVARMDGDVIIGALFSVHHQPPAEKVPERKCGEIREQYGIQRVEAMFHTLDKINADPVLLPNITLGSEIRDSCWHSSVALEQSIEFIRDSLISIRDEKDGLNRCLPDGQTLPPGRTKKPIAGVIGPGSSSVAIQVQNLLQLFDIPQIAYSATSIDLSDKTLYKYFLRVVPSDTLQARAMLDIVKRYNWTYVSAVHTEGNYGESGMDAFKELAAQEGLCIAHSDKIYSNAGEKSFDRLLRKLRERLPKARVVVCFCEGMTVRGLLSAMRRLGVVGEFSLIGSDGWADRDEVIEGYEVEANGGITIKLQSPEVRSFDDYFLKLRLDTNTRNPWFPEFWQHRFQCRLPGHLLENPNFKKVCTGNESLEENYVQDSKMGFVINAIYAMAHGLQNMHHALCPGHVGLCDAMKPIDGRKLLDFLIKSSFVGVSGEEVWFDEKGDAPGRYDIMNLQYTEANRYDYVHVGTWHEGVLNIDDYKIQMNKSGMVRSVCSEPCLKGQIKVIRKGEVSCCWICTACKENEFVQDEFTCRACDLGWWPNAELTGCEPIPVRYLEWSDIESIIAIAFSCLGILVTLFVTLIFVLYRDTPVVKSSSRELCYIILAGIFLGYVCPFTLIAKPTTTSCYLQRLLVGLSSAMCYSALVTKTNRIARILAGSKKKICTRKPRFMSAWAQVIIASILISVQLTLVVTLIIMEPPMPILSYPSIKEVYLICNTSNLGVVAPVGYNGLLIMSCTYYAFKTRNVPANFNEAKYIAFTMYTTCIIWLAFVPIYFGSNYKIITTCFAVSLSVTVALGCMFTPKMYIIIAKPERNVRSAFTTSDVVRMHVGDGKLPCRSNTFLNIFRRKKPGAGNANSNGKSVSWSEPGGRQAPKGQHVWQRLSVHVKTNETACNQTAVIKPLTKSYQGSGKSLTFSDASTKTLYNVEEEDNTPSAHFSPPSSPSMVVHRRGPPVATTPPLPPHLTAEETPLFLADSVIPKGLPPPLPQQQPQQPPPQQPPQQPKSLMDQLQGVVTNFGSGIPDFHAVLAGPGTPGNSLRSLYPPPPPPQHLQMLPLHLSTFQEESISPPGEDIDDDSERFKLLQEFVYEREGNTEEDELEEEEDLPTASKLTPEDSPALTPPSPFRDSVASGSSVPSSPVSESVLCTPPNVTYASVILRDYKQSSSTL
For the molecule B1, the stoichiometry N (usually a count of units in the complex or per binding partner) is 2.
